Experimental data as given in publication PMC11168923 (Nature, 2024).

Key:
[1] = biological target: T1, FLVCR2 (Homo sapiens, UniProt Q9UPI3); experiment: intrinsic tryptophan fluorescence shift (F350/F330); assay type: binding; settings: 0.5 µM protein; LMNG; pH 7.4; room temperature
T1 construct: full length; transport: pcDNA3.1 in HEK293 with CHKA or ETNK1; structures and fluorescence: C-terminal FLAG tag, Flp-In T-REx293, LMNG
T1 sequence (Q9UPI3 1-526): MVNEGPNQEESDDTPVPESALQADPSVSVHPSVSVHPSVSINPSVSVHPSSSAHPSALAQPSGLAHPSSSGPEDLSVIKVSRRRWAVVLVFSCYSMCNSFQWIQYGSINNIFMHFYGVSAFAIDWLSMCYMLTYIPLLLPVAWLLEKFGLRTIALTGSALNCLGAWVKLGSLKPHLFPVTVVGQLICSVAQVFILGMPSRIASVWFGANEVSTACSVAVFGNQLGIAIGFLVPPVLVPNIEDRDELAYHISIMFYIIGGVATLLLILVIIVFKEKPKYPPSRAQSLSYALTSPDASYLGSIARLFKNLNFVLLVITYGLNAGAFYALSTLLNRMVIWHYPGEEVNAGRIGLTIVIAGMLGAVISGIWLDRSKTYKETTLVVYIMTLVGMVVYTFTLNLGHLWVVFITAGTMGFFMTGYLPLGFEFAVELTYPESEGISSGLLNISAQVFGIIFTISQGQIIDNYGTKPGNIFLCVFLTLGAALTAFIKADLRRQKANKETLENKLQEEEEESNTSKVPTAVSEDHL

[2] = biological target: T2, FLVCR1 (FLVCR1a) (Homo sapiens, UniProt Q9Y5Y0); experiment: as above; assay type: binding; settings: 0.5 µM protein; LMNG; pH 7.4; room temperature
T2 construct: full length; transport: pcDNA3.1 in HEK293 with CHKA or ETNK1; structures and fluorescence: C-terminal FLAG tag, Flp-In T-REx293, LMNG
T2 sequence (Q9Y5Y0 1-555): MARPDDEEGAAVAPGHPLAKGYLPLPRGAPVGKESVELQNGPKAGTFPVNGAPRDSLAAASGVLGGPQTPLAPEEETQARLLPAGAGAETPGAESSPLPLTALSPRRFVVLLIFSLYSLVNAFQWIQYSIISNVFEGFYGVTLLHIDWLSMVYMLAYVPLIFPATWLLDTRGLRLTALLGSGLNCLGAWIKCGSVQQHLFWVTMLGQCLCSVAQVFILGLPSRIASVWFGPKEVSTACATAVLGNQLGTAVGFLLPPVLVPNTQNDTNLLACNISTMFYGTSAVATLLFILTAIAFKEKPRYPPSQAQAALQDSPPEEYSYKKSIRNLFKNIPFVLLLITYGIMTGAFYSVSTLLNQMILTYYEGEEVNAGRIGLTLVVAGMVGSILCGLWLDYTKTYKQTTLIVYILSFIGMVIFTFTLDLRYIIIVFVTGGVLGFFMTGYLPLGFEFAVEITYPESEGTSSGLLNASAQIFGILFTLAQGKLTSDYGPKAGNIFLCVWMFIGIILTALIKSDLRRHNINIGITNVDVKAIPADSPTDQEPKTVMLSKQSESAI

[3] = substrate: C[N+](C)(C)CCO; experiment: radioligand uptake dose curve in HEK293 cells; assay type: cell-based, Homo sapiens; settings: CHKA co-expressed, DMEM, 37 °C, 1 h, labelled compound
[4] = substrate: NCCO; experiment: radioligand uptake dose curve in HEK293 cells; assay type: cell-based, Homo sapiens; settings: ETNK1 co-expressed, DMEM, 37 °C, 1 h, labelled compound

C[N+](C)(C)CCO [choline] was tested, and the “shift of F350/F330” value [1] was “Shifts of tryptophan fluorescence of FLVCR1 and FLVCR2 in the presence of choline or betaine” and the “shift of F350/F330” value [2] was “Shifts of tryptophan fluorescence of FLVCR1 and FLVCR2 in the presence of choline or betaine”.

B1: FLVCR2 (Homo sapiens) (protein)
chain: MVNEGPNQEESDDTPVPESALQADPSVSVHPSVSVHPSVSINPSVSVHPSSSAHPSALAQPSGLAHPSSSGPEDLSVIKVSRRRWAVVLVFSCYSMCNSFQWIQYGSINNIFMHFYGVSAFAIDWLSMCYMLTYIPLLLPVAWLLEKFGLRTIALTGSALNCLGAWVKLGSLKPHLFPVTVVGQLICSVAQVFILGMPSRIASVWFGANEVSTACSVAVFGNQLGIAIGFLVPPVLVPNIEDRDELAYHISIMFYIIGGVATLLLILVIIVFKEKPKYPPSRAQSLSYALTSPDASYLGSIARLFKNLNFVLLVITYGLNAGAFYALSTLLNRMVIWHYPGEEVNAGRIGLTIVIAGMLGAVISGIWLDRSKTYKETTLVVYIMTLVGMVVYTFTLNLGHLWVVFITAGTMGFFMTGYLPLGFEFAVELTYPESEGISSGLLNISAQVFGIIFTISQGQIIDNYGTKPGNIFLCVFLTLGAALTAFIKADLRRQKANKETLENKLQEEEEESNTSKVPTAVSEDHL
notes: full length; transport: pcDNA3.1 in HEK293 with CHKA or ETNK1; structures and fluorescence: C-terminal FLAG tag, Flp-In T-REx293, LMNG
B1 was tested, and the Km [3] was 64.0 ± 21.0 µM and the Km [4] was 41.5 ± 32.0 µM.

B2: FLVCR1 (FLVCR1a) (Homo sapiens) (protein)
chain: MARPDDEEGAAVAPGHPLAKGYLPLPRGAPVGKESVELQNGPKAGTFPVNGAPRDSLAAASGVLGGPQTPLAPEEETQARLLPAGAGAETPGAESSPLPLTALSPRRFVVLLIFSLYSLVNAFQWIQYSIISNVFEGFYGVTLLHIDWLSMVYMLAYVPLIFPATWLLDTRGLRLTALLGSGLNCLGAWIKCGSVQQHLFWVTMLGQCLCSVAQVFILGLPSRIASVWFGPKEVSTACATAVLGNQLGTAVGFLLPPVLVPNTQNDTNLLACNISTMFYGTSAVATLLFILTAIAFKEKPRYPPSQAQAALQDSPPEEYSYKKSIRNLFKNIPFVLLLITYGIMTGAFYSVSTLLNQMILTYYEGEEVNAGRIGLTLVVAGMVGSILCGLWLDYTKTYKQTTLIVYILSFIGMVIFTFTLDLRYIIIVFVTGGVLGFFMTGYLPLGFEFAVEITYPESEGTSSGLLNASAQIFGILFTLAQGKLTSDYGPKAGNIFLCVWMFIGIILTALIKSDLRRHNINIGITNVDVKAIPADSPTDQEPKTVMLSKQSESAI
notes: as for B1
For B2, the Km [3] was 47.4 ± 9.8 µM and the Km [4] was 8 ± 1.5 µM.
